{"source": "paper PMC3326314", "about": "(Nucleic Acids Research, 2011)", "binders": {"B1": {"name": "Rap1[675-827] (domain or fragment, S. cerevisiae, UniProt P11938 675-827, looked up)", "chain": "SDFSNEDIYDNIDPDTISFPPKIATTDLFLPLFFHFGSTRQFMDKLHEVISGDYEPSQAEKLVQDLCDETGIRKNFSTSILTCLSGDLMVFPRYFLNMFKDNVNPPPNVPGIWTHDDDESLKSNDQEQIRKLVKKHGTGRMEMRKRFFEKDLL"}, "B2": {"name": "21-mer telomeric DNA duplex (ITC and EMSA) (dsDNA)", "DNA 1": "TCCTGGTGTGTGGGTGTGCGG", "DNA 2": "GCACACCCACACACCAGGACC"}, "B3": {"name": "20-mer DNA duplex (AUC and SAXS) (dsDNA)", "DNA 1": "TCCTGGTGTGTGGGTGTGCG", "DNA 2": "GACGCACACCCACACACCAG"}, "B4": {"name": "31-mer crystallography duplex (dsDNA)", "DNA 1": "ACCTGGTGTGTGGGTGTTGTGTGGTGTTCAC", "DNA 2": "GTGTGAACACCACACAACACCCACACACCAG"}}, "key": {"[1]": {"target": "T1, Rif2 full length (UniProt Q06208 1-395)", "T1 sequence (looked up)": "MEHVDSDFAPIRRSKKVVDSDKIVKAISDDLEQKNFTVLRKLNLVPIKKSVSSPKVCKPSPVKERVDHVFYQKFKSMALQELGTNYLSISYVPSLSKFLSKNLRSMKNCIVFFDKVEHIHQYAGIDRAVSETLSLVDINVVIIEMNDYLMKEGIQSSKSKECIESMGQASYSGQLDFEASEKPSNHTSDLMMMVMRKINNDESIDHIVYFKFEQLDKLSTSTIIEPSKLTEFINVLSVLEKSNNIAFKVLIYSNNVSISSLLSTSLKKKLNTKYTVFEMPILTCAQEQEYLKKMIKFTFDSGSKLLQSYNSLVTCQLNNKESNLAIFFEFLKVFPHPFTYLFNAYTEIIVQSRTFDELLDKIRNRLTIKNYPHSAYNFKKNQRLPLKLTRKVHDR", "experiment": "NMR titration"}, "[2]": {"target": "T2, Rap1[Y592A-K597A] (Saccharomyces cerevisiae, UniProt P11938 1-827, Y592A;K597A)", "T2 sequence": "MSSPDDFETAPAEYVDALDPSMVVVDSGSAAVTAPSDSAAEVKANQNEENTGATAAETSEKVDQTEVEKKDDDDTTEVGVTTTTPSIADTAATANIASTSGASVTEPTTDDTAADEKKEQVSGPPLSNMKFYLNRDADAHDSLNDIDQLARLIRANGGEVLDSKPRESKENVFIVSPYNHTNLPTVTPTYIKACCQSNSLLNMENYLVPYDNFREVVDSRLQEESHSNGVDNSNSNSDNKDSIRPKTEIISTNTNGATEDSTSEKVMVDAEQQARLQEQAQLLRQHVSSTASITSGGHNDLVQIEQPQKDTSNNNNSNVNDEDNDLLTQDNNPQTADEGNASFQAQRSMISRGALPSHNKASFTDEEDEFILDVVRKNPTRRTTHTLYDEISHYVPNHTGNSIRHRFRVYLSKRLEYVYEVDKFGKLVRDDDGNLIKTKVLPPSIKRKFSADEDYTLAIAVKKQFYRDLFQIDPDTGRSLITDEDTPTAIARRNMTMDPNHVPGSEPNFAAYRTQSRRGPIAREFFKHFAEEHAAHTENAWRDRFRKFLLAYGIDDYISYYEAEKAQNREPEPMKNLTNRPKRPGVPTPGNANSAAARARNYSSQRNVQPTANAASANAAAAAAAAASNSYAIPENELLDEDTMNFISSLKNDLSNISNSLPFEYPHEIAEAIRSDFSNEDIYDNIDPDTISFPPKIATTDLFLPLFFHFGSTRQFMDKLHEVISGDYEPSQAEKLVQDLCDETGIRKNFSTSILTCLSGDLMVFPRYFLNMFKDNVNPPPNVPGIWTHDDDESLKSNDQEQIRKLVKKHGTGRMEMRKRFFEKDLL", "experiment": "EMSA"}, "[3]": {"target": "T3, Rap1Δ[591-597] (Saccharomyces cerevisiae, UniProt P11938 1-827, del591-597)", "T3 sequence": "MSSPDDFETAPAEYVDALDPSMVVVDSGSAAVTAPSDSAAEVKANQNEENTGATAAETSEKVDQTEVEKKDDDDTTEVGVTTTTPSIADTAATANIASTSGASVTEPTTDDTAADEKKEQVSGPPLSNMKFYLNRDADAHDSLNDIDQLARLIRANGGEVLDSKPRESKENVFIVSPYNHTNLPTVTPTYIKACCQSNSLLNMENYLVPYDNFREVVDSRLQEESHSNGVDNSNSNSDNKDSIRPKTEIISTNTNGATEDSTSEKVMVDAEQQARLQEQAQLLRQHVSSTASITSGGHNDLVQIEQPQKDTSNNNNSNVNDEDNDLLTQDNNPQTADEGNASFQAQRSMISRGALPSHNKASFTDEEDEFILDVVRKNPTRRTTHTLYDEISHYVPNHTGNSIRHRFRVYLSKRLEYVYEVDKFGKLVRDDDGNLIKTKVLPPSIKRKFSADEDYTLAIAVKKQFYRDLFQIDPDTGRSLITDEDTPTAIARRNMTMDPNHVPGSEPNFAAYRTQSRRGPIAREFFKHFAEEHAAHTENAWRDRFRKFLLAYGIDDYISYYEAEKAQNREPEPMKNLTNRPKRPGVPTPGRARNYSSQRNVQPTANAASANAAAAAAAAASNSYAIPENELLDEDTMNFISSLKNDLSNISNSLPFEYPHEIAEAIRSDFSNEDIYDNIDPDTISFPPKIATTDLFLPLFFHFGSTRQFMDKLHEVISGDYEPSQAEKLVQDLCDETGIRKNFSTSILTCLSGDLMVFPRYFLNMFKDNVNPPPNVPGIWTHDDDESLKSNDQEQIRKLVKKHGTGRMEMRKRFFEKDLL", "experiment": "EMSA"}, "[4]": {"target": "T4, Rap1 WT (Rap1-fl) (Saccharomyces cerevisiae, UniProt P11938 1-827)", "T4 sequence": "T2 sequence with A592Y, A597K", "experiment": "SAXS and AUC"}, "[5]": {"target": "T5, Rap1[358-827] (Saccharomyces cerevisiae, UniProt P11938 358-827)", "T5 sequence": "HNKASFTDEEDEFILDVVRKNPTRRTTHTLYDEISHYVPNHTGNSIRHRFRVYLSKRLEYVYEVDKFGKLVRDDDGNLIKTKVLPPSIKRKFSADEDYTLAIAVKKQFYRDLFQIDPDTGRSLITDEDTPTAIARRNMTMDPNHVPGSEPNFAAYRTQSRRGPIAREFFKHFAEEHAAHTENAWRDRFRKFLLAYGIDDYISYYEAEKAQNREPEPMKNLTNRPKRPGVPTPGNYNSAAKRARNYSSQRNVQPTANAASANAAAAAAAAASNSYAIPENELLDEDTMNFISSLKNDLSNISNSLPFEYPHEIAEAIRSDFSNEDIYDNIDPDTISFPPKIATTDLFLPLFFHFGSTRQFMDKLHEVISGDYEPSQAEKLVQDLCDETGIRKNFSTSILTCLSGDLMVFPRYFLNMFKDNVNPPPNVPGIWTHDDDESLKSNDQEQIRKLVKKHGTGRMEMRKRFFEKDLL", "experiment": "SAXS and AUC"}, "[6]": {"target": "T6, Rap1[117-827] (Saccharomyces cerevisiae, UniProt P11938 117-827)", "T6 sequence": "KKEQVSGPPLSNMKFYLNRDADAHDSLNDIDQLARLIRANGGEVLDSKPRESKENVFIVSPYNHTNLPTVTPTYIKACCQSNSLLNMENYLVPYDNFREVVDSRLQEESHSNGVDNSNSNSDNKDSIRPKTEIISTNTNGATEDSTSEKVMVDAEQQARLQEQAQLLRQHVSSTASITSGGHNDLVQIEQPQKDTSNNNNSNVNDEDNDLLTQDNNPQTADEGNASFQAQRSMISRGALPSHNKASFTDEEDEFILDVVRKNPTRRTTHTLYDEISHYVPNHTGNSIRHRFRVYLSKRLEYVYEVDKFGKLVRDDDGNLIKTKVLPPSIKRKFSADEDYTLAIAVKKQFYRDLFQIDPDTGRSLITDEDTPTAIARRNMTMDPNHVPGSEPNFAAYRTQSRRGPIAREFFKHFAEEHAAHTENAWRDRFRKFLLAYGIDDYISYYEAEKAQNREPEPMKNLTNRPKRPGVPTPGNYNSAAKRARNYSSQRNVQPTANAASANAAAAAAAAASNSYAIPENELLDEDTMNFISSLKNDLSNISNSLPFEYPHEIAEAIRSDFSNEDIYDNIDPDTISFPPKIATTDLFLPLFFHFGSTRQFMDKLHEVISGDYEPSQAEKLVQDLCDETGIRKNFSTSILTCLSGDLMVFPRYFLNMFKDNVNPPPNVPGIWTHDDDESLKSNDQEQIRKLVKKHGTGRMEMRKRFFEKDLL", "experiment": "SAXS and AUC"}, "[7]": {"target": "T5, Rap1[358-827]", "experiment": "X-ray crystallography"}}, "note": "Changes are numbered by the printed parent chain."}
{"binder": "B1", "values": [{"measurement": "binding result", "setting": "[1]", "value": "binds"}]}
{"binder": "B2", "values": [{"measurement": "binding result", "setting": "[2]", "value": "binds"}, {"measurement": "binding result", "setting": "[3]", "value": "binds"}]}
{"binder": "B3", "values": [{"measurement": "binding result", "setting": "[4]", "value": "binds"}, {"measurement": "binding result", "setting": "[5]", "value": "binds"}, {"measurement": "binding result", "setting": "[6]", "value": "binds"}]}
{"binder": "B4", "values": [{"measurement": "binding result", "setting": "[7]", "value": "binds"}]}
